This is an account of results in patent US20210130452A1 (Merck KGaA, published 2021).

Numbering of substitutions follows the chain as printed. Read-outs that look alike come from different tables or passages of the source.

In general, koff refers to the first-order rate constant of dissociation. A word on the IC50: it is the concentration at which inhibition is half-maximal. The term Kd denotes the free concentration of one partner at which half of the binding sites on the other are occupied at equilibrium, for simple one-to-one binding.

Experiment [1] deals with T1, human IL-17F (human, UniProt Q96PD4 31-163).
T1 construct: made in Hek293 cells (GenBank AF384857); also called hIL-17F; hIL17F
T1 sequence: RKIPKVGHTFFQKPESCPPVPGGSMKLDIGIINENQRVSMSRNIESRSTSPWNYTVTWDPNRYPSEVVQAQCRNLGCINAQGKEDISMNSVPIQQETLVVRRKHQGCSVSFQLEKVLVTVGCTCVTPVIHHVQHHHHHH
In words: AlphaScreen IL-17F-IL-17RC; vs IL17MS16A04. (In general: Bead proximity is the source of the signal in Alpha formats.)

For experiment [2], the target named is T2, human IL-17A/F heterodimer (human, UniProt Q16552 24-155; Q96PD4 31-163, limits assumed).
T2 construct: bought, made in E. coli (R&D Systems 5194-IL/CF); also called hIL-17A/F; hIL17A/F
Briefly: SPR (Biacore) off-rate.
Target sequence in this assay (Q16552 24-155 limits assumed, chain 1 of 2, one chain of several): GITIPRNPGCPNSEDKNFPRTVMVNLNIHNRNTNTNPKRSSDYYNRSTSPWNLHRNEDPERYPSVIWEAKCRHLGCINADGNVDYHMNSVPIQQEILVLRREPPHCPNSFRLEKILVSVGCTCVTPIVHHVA

Experiment [3] has as its target T1, human IL-17F. In words: SPR (Biacore) off-rate. On the technique in general: Surface plasmon resonance follows binding to a sensor surface in real time, without labels.
The target in experiment [4] is T3, human IL-17A (human, UniProt Q16552 24-155).
T3 construct: secreted form (GenBank U32659) expressed in Hek293 with C-terminal 6-His; also called hIL-17A; IL-17A-6HIS
Briefly: competition ELISA IL17A-RA. For orientation: ELISA stands for enzyme-linked immunosorbent assay.
T3 sequence (Q16552 other isoform, or with tags, fused parts or gaps): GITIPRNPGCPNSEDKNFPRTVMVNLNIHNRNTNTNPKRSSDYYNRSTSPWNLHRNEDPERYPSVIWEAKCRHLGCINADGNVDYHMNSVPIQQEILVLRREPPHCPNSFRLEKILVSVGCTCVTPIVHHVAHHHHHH
Description: (§1) To this end, IL-17RA, respectively IL-17RC was coated at a concentration of 1 μg/ml in PBS.

Experiment [5] has as its target T3, human IL-17A. In words: cell-based or functional assay.
Experiment [6] addresses T4, human IL-17F (human, UniProt Q96PD4 31-163).
T4 sequence: T1 sequence
Briefly: cell-based or functional assay.

For experiment [7], the target named is T4, human IL-17F. In words: competition ELISA IL17F-RC.
Description: as §1
Experiment [8] concerns the target T3, human IL-17A. In words: ELISA, coated IL-17A.
Description: (§2) Binding of a selected panel of anti-IL-17 Nanobodies to IL-17 of other species was assessed using a binding ELISA. […] HRP (horseradish peroxidase) conjugated anti-myc (Serotec, MCA 2200P) was used for detection using esTMB as substrate.
Experiment [9] deals with guinea pig IL-17A (guinea pig). Briefly: ELISA, coated IL-17A.
Description: as §2
Experiment [10] deals with T5, mouse IL-17A (mouse, UniProt Q62386 26-158).
T5 sequence (looked up): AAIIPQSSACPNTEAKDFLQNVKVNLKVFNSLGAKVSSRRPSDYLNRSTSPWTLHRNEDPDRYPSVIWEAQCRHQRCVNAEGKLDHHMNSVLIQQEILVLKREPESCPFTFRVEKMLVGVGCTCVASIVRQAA
In words: ELISA, coated IL-17A.
Description: as §2

The target in experiment [11] is T6, rat IL-17A (rat, UniProt Q61453 18-150, limits assumed).
T6 sequence (looked up): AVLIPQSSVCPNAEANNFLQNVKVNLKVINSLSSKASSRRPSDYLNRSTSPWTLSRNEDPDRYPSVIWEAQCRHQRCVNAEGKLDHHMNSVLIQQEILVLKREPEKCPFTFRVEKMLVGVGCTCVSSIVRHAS
In words: ELISA, coated IL-17A.
Description: as §2

Experiment [12] concerns the target T7, marmoset IL-17A (marmoset, IL-17A is a disulfide-linked homodimer. One chain is given.).
T7 chain: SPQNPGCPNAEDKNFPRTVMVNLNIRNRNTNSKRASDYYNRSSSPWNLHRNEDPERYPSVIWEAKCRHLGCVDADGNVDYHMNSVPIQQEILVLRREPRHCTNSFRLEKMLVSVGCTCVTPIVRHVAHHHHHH
Briefly: ELISA, coated IL-17A.
Description: as §2

The target of experiment [13] is T3, human IL-17A. Briefly: SPR, IL-17A-Nanobody complex over captured IL-17RA.
Excerpt: (§3) The receptor (IL-17RA or IL-17RC) was captured via its human Fc-tail by an anti-human IgG-Fc antibody coated on the chip.
Experiment [14] has as its target T4, human IL-17F. In words: SPR, IL-17F-Nanobody complex over captured IL-17RC.
Excerpt: as §3
Experiment [15] deals with T3, human IL-17A. Briefly: KinExA, 500 pM Nanobody.
Experiment [16] deals with T4, human IL-17F. Briefly: KinExA, 500 pM Nanobody.
Experiment [17] has as its target T8, mouse IL-17F (mouse, UniProt Q7TNI7 29-161).
T8 sequence (looked up): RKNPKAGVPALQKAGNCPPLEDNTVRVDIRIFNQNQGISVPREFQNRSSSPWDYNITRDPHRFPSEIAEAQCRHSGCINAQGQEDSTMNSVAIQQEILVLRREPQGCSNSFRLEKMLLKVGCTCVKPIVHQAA
Briefly: ELISA, coated IL-17F.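 Note: binding ELISA on coated antigen from various species, with bound Nanobodies revealed by an HRP-linked anti-myc antibody and esTMB substrate.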
Description: as §2

For experiment [18], the target named is T9, marmoset IL-17F (marmoset, UniProt A6N6I9 31-163).
T9 sequence (looked up): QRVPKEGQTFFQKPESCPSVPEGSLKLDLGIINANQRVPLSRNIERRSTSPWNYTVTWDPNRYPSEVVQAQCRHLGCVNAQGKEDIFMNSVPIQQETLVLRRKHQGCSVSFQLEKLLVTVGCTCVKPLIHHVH
Briefly: ELISA, coated IL-17F.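 Note: binding ELISA on coated antigen from various species, with bound Nanobodies revealed by an HRP-linked anti-myc antibody and esTMB substrate.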
Description: as §2

Experiment [19] addresses T4, human IL-17F. Briefly: ELISA, coated IL-17F.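 Note: binding ELISA on coated antigen from various species, with bound Nanobodies revealed by an HRP-linked anti-myc antibody and esTMB substrate.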
Description: as §2
The target of experiment [20] is T10, rat IL-17F (rat, UniProt Q5BJ95 29-161).
T10 sequence (looked up): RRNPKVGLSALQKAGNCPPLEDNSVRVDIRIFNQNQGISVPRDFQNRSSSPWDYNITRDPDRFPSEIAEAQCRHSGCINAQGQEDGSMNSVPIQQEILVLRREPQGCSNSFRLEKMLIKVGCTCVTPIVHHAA
Briefly: ELISA, coated IL-17F.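 Note: binding ELISA on coated antigen from various species, with bound Nanobodies revealed by an HRP-linked anti-myc antibody and esTMB substrate.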
Description: as §2

The target of experiment [21] is T11, human IL-17F (human, UniProt Q96PD4 31-163).
T11 construct: also called hIL-17F; rhIL-17F
T11 sequence: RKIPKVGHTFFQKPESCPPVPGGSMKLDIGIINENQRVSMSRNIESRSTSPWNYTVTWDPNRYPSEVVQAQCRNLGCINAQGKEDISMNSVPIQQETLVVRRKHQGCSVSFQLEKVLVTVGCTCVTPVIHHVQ
In words: method not given.

Experiment [22] has as its target T12, human IL-17A (human, UniProt Q16552 24-155).
T12 construct: secreted form made in Hek293 cells (GenBank U32659); also called hIL-17A; hIL17A
In words: AlphaScreen IL-17A-IL-17RA (average).
T12 sequence (Q16552 other isoform, or with tags, fused parts or gaps): as the sequence (Q16552 other isoform, or with tags, fused parts or gaps) above

The target of experiment [23] is T2, human IL-17A/F heterodimer. In words: SPR (Biacore) off-rate. The source holds these as a separate data set.
Target sequence in this assay (Q16552 24-155 limits assumed, one chain of several): as the sequence (Q16552 24-155 limits assumed, chain 1 of 2, one chain of several) above
Experiment [24] addresses T12, human IL-17A. Briefly: SPR (Biacore) off-rate.
In experiment [25] the target is T13, Cynomolgus monkey IL-17A (Cynomolgus monkey, UniProt A0A2K5TTB0 24-155).
T13 construct: also called cyno IL-17A; cIL-17A
In words: SPR (Biacore) off-rate.

The target in experiment [26] is T2, human IL-17A/F heterodimer. In words: cell-based or functional assay.
Target sequence in this assay (Q16552 24-155 limits assumed, one chain of several): as the sequence (Q16552 24-155 limits assumed, chain 1 of 2, one chain of several) above
Experiment [27] concerns the target T12, human IL-17A. Briefly: cell-based or functional assay. This is another data set of the same source.
Experiment [28] deals with T4, human IL-17F. Briefly: KinExA, 100 pM Nanobody.
Description: The affinity of a limited set of formatted Nanobodies was determined using the KinExA.

T13 sequence (A0A2K5TTB0 entry or part of it): as the sequence (Q16552 24-155 limits assumed, chain 1 of 2, one chain of several) above, with T3A, P8S, N34S, I77V, N78K, P104R counted along it

B1: IL17MS3040 (VHH)
VHH: EVQLVESGGGLVQAGGSLRLSCAASGRTFSSYVVGWFRQAPGKEREFIGAISGSGGSIYYAVSEKDRFTISRDNGKNTLYLQMSSLKAEDTAVYYCTADQEFGYLRFGRSEYWGQGTQVTVSS
Turning to B1, the “IC50 fold difference vs WT” value in experiment [1] turned out to be 9.6 fold. The off-rate constant (koff) in [2] was determined as 0.00878 s⁻¹; in [3], 0.00148 s⁻¹.

B2: IL17MS3042 (VHH)
VHH: B1 VHH with G56D, S57T
For the molecule B2, the “IC50 fold difference vs WT” value in [1] came out at 8.6 fold. Moreover, the dissociation rate constant (koff) in experiment [2] was 0.005 s⁻¹; in experiment [3] it was 0.00121 s⁻¹.

B3: IL17MS3041 (VHH)
VHH: B1 VHH with G56E
As to B3, the “IC50 fold difference vs WT” value in [1] is 2.2 fold. For the same molecule, the koff in [2] came to 0.00427 s⁻¹; in experiment [3], 0.000606 s⁻¹.

B4: SH-Fc-(GS)2-13E02 (Fc fusion, not shown: a dimerising Fc or GST; small tags and cut ends)
chain: EVQLVESGGGLVQAGGSLRLSCAASGRTYDAMGWLRQAPGKEREFVAAISGSGDDTYYADSVKGRFTISKDNAGITMYLQMNSLKPEDTAVYYCATRRGLYYVWDSNDYENWGQGTQVTVSS
notes: also called MSB0010619; SH-(GS)2-Fc-13E02
Consider B4, for which the half-maximal inhibitory concentration (IC50) in experiment [4] was 0.112 nM; in experiment [7], 0.267 nM. Further, in experiment [5], the “IC50, hIL-17A induced IL-6, HT-1080, without HSA” value came out at 0.31 nM. For the same molecule, the “IC50, hIL-17F induced IL-6, HT-1080, without HSA” value in experiment [6] amounted to 4.9 nM.

B5: 13E02 (VHH)
VHH: B4 chain
notes: Class 4; also called IL17MS13E02
Consider B5, for which the concentration for half-maximal inhibition (IC50) amounted to 0.42 nM in [4] and 3.02 nM in [7]. For the same molecule, the OD in [8] was 1.79 OD; in [9] it was 0.006 OD; in experiment [10], -0.001 OD; in experiment [11], 0.003 OD; in experiment [12], 1.85 OD; in experiment [17], 0.0155 OD. For the same molecule, the OD in [18] is 0.248 OD; in experiment [19], 1.1 OD; in experiment [20], 0.0255 OD. For the same molecule, the “% Biacore binding (IL-17A-NB)-IL-17RA” value in [13] is -1.04%. For the same molecule, the “% Biacore binding (IL-17F-NB)-IL-17RC” value in experiment [14] was 7.17%. The dissociation constant Kd in experiment [15] was 0.0359 nM; in experiment [16], 3.62 nM.

B6: 13E02 Fc fusion (Fc fusion)
chain: B4 chain
notes: also called 13E02 tested as Fc fusion; not shown: hinge and Fc
As to B6, the “fold lower affinity on IL-17F than on IL-17A” value in experiment [21] is about 10 fold.

B7: IL17MS3061 (VHH)
VHH: DVQLVESGGGLVQPGGSLRLSCAASGTIVNIHVMGWYRQAPGKQRELVALIFSGGSADYADSVKGRFTISRDNSKNTVYLQMNSLRPEDTAVYYCAAEIGYYSGGTYYSSEAHWGQGTLVTVSS
notes: variant of IL17MS04G01; Kabat numbering
B7 came in with a half-maximal inhibitory concentration (IC50) in experiment [22] of 0.027 nM. Also, the values for the koff in [23], in [24] and in experiment [25] were 0.000195 s⁻¹, 0.000146 s⁻¹ and 0.000181 s⁻¹, respectively. Also, the “IC50 cell based assay hIL-17A/F (IL-6, HT-1080 cells)” value in [26] was 8.15 nM. Moreover, the “IC50 cell based assay hIL-17A (IL-6, HT-1080 cells)” value in [27] was 0.94 nM.

B8: SH-Fc-(GS)2-13B03 (Fc fusion, not shown: a dimerising Fc or GST; small tags and cut ends)
chain: EVQLVESGGGSVQAGDSLRLSCAASGRANSINWFGWFRQTPGKEREFVAGIRWSDAYTEYANSVKGRFTISRDNAKNTVDLQMDSLKPEDTAVYYCVLDLSTVRYWGQGTQVTVSS
notes: also called MSB0010618; SH-(GS)2-Fc-13B03
For the molecule B8, the IC50 in [4] stood at 0.044 nM. For the same molecule, in experiment [5], the “Emax, hIL-17A induced IL-6, HT-1080, without HSA” value is 100% and the “IC50, hIL-17A induced IL-6, HT-1080, without HSA” value turned out to be 0.37 nM. Also, the “IC50, hIL-17F induced IL-6, HT-1080, without HSA” value in [6] was found to be 5.7 nM. In addition, the affinity in experiment [28], expressed as Kd, was 0.145 nM.

B9: 13B03 (VHH)
VHH: B8 chain
notes: Class 4; also called IL17MS13B03
Take B9: the IC50 was found to be 0.121 nM in experiment [4] and 91.6 nM in experiment [7]. Further, the OD in [8] was 1.95 OD; in experiment [9], 0.004 OD; in [10], -0.001 OD; in experiment [11], 0.004 OD; in experiment [12], 1.94 OD; in experiment [17], -0.0005 OD. In addition, the OD in experiment [18] turned out to be 1.33 OD; in [19], 1.66 OD; in experiment [20], 0.0085 OD. The “% Biacore binding (IL-17A-NB)-IL-17RA” value in [13] is -2.24%. Further, the “% Biacore binding (IL-17F-NB)-IL-17RC” value in [14] turned out to be 15.7%. The values for the dissociation constant Kd in experiment [15] and in experiment [16] were 0.0225 nM and 4.91 nM, respectively.

B10: 13B03 Fc fusion (Fc fusion)
chain: B8 chain
notes: also called 13B03 tested as Fc fusion; not shown: hinge and Fc
For the molecule B10, the “fold lower affinity on IL-17F than on IL-17A” value in experiment [21] is about 10 fold.
